The results in this text go back to the array DNA melting data of Ke et al..

A short description of this data set: melting temperature; melt of duplexes. As to conditions: sodium 0.0675 M; strand 1 µM.
By Tm is commonly meant the temperature at the midpoint of the melting transition. Turning to “CGACGTGCACTATGTGCTG+CAGCACATTGGGCACGTCG ((((((((.(.((((((((+)))))))).).))))))))”, the Tm turned out to be 53.3 °C.
Turning to “CGACGTGCCCCATGTGCTG+CAGCACATCACGCACGTCG ((((((((...((((((((+))))))))...))))))))”, the Tm stood at 45.7 °C.
On to “CGACGTGCCAAATGTGCTG+CAGCACATAATGCACGTCG ((((((((...((((((((+))))))))...))))))))”, for which the Tm worked out at 48.2 °C.
Under “CGACGTGCCGAATGTGCTG+CAGCACATGCGGCACGTCG ((((((((((.((((((((+)))))))).))))))))))” stands 61.6 °C; under “CGACGTGCATCATGTGCTG+CAGCACATTCCGCACGTCG ((((((((...((((((((+))))))))...))))))))”, 46.6 °C; under “CGACGTGCTGCATGTGCTG+CAGCACATCCAGCACGTCG ((((((((((.((((((((+)))))))).))))))))))”, 55.9 °C.
The figure for “CGACGTGCTTAATGTGCTG+CAGCACATCCGGCACGTCG ((((((((...((((((((+))))))))...))))))))” is 49 °C.
Under “CGACGTGCTTGATGTGCTG+CAGCACATATGGCACGTCG ((((((((...((((((((+))))))))...))))))))” stands 51 °C; under “CGACGTGCCACATGTGCTG+CAGCACATGCCGCACGTCG ((((((((..(((((((((+)))))))))..))))))))”, 52 °C.
“CGACGTGCTACATGTGCTG+CAGCACATATGGCACGTCG ((((((((.(.((((((((+)))))))).).))))))))”: the Tm stood at 51.3 °C.
Regarding “CGACGTGCATCATGTGCTG+CAGCACATTCAGCACGTCG ((((((((...((((((((+))))))))...))))))))”, the Tm was determined as 47.8 °C.
On to “CGACGTGCTAGATGTGCTG+CAGCACATAAGGCACGTCG ((((((((...((((((((+))))))))...))))))))”, for which the Tm is 51.4 °C.
The figure for “CGACGTGCCTCATGTGCTG+CAGCACATGGGGCACGTCG (((((((((.(((((((((+))))))))).)))))))))” is 61.2 °C; for “CGACGTGCGAGATGTGCTG+CAGCACATAATGCACGTCG ((((((((...((((((((+))))))))...))))))))” it is 52 °C; for “CGACGTGCCAGATGTGCTG+CAGCACATAGTGCACGTCG ((((((((...((((((((+))))))))...))))))))” it is 45.6 °C.
The figure for “CGACGTGCTTTATGTGCTG+CAGCACATGACGCACGTCG ((((((((.(.((((((((+)))))))).).))))))))” is 47.1 °C; for “CGACGTGCCCAATGTGCTG+CAGCACATACTGCACGTCG ((((((((...((((((((+))))))))...))))))))” it is 47.5 °C; for “CGACGTGCGGTATGTGCTG+CAGCACATCTTGCACGTCG ((((((((...((((((((+))))))))...))))))))” it is 50.7 °C.
The figure for “CGACGTGCGCGATGTGCTG+CAGCACATATAGCACGTCG ((((((((...((((((((+))))))))...))))))))” is 51.8 °C; for “CGACGTGCTAAATGTGCTG+CAGCACATAGAGCACGTCG (((((((((..((((((((+))))))))..)))))))))” it is 52.9 °C; for “CGACGTGCCAAATGTGCTG+CAGCACATACGGCACGTCG (((((((((..((((((((+))))))))..)))))))))” it is 53.2 °C.
For “CGACGTGCAGGATGTGCTG+CAGCACATACAGCACGTCG ((((((((.(.((((((((+)))))))).).))))))))”, the Tm came out at 55 °C.
Take “CGACGTGCCTGATGTGCTG+CAGCACATACAGCACGTCG ((((((((...((((((((+))))))))...))))))))”: the Tm came out at 50.8 °C.
The figure for “CGACGTGCCCGATGTGCTG+CAGCACATCTAGCACGTCG ((((((((..(((((((((+)))))))))..))))))))” is 52.9 °C.
Take “CGACGTGCCTCATGTGCTG+CAGCACATTCAGCACGTCG ((((((((...((((((((+))))))))...))))))))”: the Tm is 47.9 °C.
“CGACGTGCTACATGTGCTG+CAGCACATCCCGCACGTCG ((((((((...((((((((+))))))))...))))))))”: the Tm is 47.4 °C.
The figure for “CGACGTGCACTATGTGCTG+CAGCACATAATGCACGTCG (((((((((.(((((((((+))))))))).)))))))))” is 51.2 °C; for “CGACGTGCGGTATGTGCTG+CAGCACATGACGCACGTCG (((((((((..((((((((+))))))))..)))))))))” it is 56.6 °C.
Regarding “CGACGTGCCAAATGTGCTG+CAGCACATCCGGCACGTCG (((((((((..((((((((+))))))))..)))))))))”, the Tm came out at 53.3 °C.
The figure for “CGACGTGCGGTATGTGCTG+CAGCACATCGAGCACGTCG ((((((((...((((((((+))))))))...))))))))” is 54 °C; for “CGACGTGCATCATGTGCTG+CAGCACATTTTGCACGTCG (((((((((..((((((((+))))))))..)))))))))” it is 50.7 °C; for “CGACGTGCAGGATGTGCTG+CAGCACATGCTGCACGTCG ((((((((((.((((((((+)))))))).))))))))))” it is 59.6 °C.
Under “CGACGTGCGGTATGTGCTG+CAGCACATCCAGCACGTCG ((((((((.(.((((((((+)))))))).).))))))))” stands 55.1 °C; under “CGACGTGCACAATGTGCTG+CAGCACATAGGGCACGTCG ((((((((.(.((((((((+)))))))).).))))))))”, 53 °C.
The figure for “CGACGTGCTGCATGTGCTG+CAGCACATACCGCACGTCG ((((((((.(.((((((((+)))))))).).))))))))” is 50.7 °C; for “CGACGTGCTCGATGTGCTG+CAGCACATGGAGCACGTCG ((((((((((.((((((((+)))))))).))))))))))” it is 59.3 °C; for “CGACGTGCCCCATGTGCTG+CAGCACATGGGGCACGTCG (((((((((((((((((((+)))))))))))))))))))” it is 67.7 °C.
With “CGACGTGCAGTATGTGCTG+CAGCACATACGGCACGTCG ((((((((.((((((((((+)))))))))).))))))))”, the midpoint of thermal melting (Tm) worked out at 58.3 °C.
The figure for “CGACGTGCGGGATGTGCTG+CAGCACATCCGGCACGTCG ((((((((.((((((((((+)))))))))).))))))))” is 61.6 °C.
On to “CGACGTGCTGGATGTGCTG+CAGCACATGCAGCACGTCG ((((((((((.((((((((+)))))))).))))))))))”, for which the Tm was determined as 61.3 °C.
Under “CGACGTGCAATATGTGCTG+CAGCACATTTAGCACGTCG ((((((((.(.((((((((+)))))))).).))))))))” stands 50.8 °C.
The figure for “CGACGTGCGCAATGTGCTG+CAGCACATCCCGCACGTCG (((((((((..((((((((+))))))))..)))))))))” is 52.5 °C; for “CGACGTGCCTGATGTGCTG+CAGCACATATGGCACGTCG (((((((((..((((((((+))))))))..)))))))))” it is 55.8 °C.
Take “CGACGTGCTATATGTGCTG+CAGCACATGCCGCACGTCG ((((((((...((((((((+))))))))...))))))))”: the Tm turned out to be 48.9 °C.
The figure for “CGACGTGCGTCATGTGCTG+CAGCACATTGGGCACGTCG ((((((((...((((((((+))))))))...))))))))” is 49.9 °C.
The figure for “CGACGTGCATAATGTGCTG+CAGCACATCACGCACGTCG ((((((((.(.((((((((+)))))))).).))))))))” is 47.6 °C; for “CGACGTGCATGATGTGCTG+CAGCACATTGCGCACGTCG ((((((((...((((((((+))))))))...))))))))” it is 49.1 °C.
Under “CGACGTGCCCTATGTGCTG+CAGCACATATAGCACGTCG ((((((((..(((((((((+)))))))))..))))))))” stands 49.6 °C.
Turning to “CGACGTGCCTAATGTGCTG+CAGCACATCATGCACGTCG ((((((((.(.((((((((+)))))))).).))))))))”, the Tm turned out to be 48.5 °C.
The figure for “CGACGTGCCTTATGTGCTG+CAGCACATTAGGCACGTCG ((((((((((.((((((((+)))))))).))))))))))” is 58 °C; for “CGACGTGCAACATGTGCTG+CAGCACATCGCGCACGTCG ((((((((...((((((((+))))))))...))))))))” it is 47.7 °C.
For the substance “CGACGTGCTGAATGTGCTG+CAGCACATCTCGCACGTCG ((((((((...((((((((+))))))))...))))))))”, the Tm came out at 50 °C.
On to “CGACGTGCCCAATGTGCTG+CAGCACATCCCGCACGTCG ((((((((...((((((((+))))))))...))))))))”, for which the Tm came out at 47.9 °C.
“CGACGTGCAGGATGTGCTG+CAGCACATGCGGCACGTCG ((((((((.(.((((((((+)))))))).).))))))))”: the Tm came out at 55.3 °C.
The figure for “CGACGTGCTCCATGTGCTG+CAGCACATGTTGCACGTCG ((((((((..(((((((((+)))))))))..))))))))” is 52.7 °C; for “CGACGTGCCGGATGTGCTG+CAGCACATACCGCACGTCG ((((((((.(.((((((((+)))))))).).))))))))” it is 53.6 °C; for “CGACGTGCACGATGTGCTG+CAGCACATGGAGCACGTCG ((((((((.(.((((((((+)))))))).).))))))))” it is 50.5 °C.
The figure for “CGACGTGCGCGATGTGCTG+CAGCACATACAGCACGTCG ((((((((...((((((((+))))))))...))))))))” is 51.7 °C; for “CGACGTGCTTCATGTGCTG+CAGCACATGCAGCACGTCG (((((((((.(((((((((+))))))))).)))))))))” it is 56.9 °C.
The figure for “CGACGTGCTCAATGTGCTG+CAGCACATAGGGCACGTCG ((((((((.(.((((((((+)))))))).).))))))))” is 52.8 °C; for “CGACGTGCACTATGTGCTG+CAGCACATTTGGCACGTCG ((((((((...((((((((+))))))))...))))))))” it is 45.3 °C.
Consider “CGACGTGCTTTATGTGCTG+CAGCACATAACGCACGTCG ((((((((.((((((((((+)))))))))).))))))))”, for which the midpoint of thermal melting (Tm) turned out to be 53.6 °C.
Under “CGACGTGCACCATGTGCTG+CAGCACATCTCGCACGTCG ((((((((...((((((((+))))))))...))))))))” stands 41.8 °C; under “CGACGTGCTCAATGTGCTG+CAGCACATCATGCACGTCG ((((((((...((((((((+))))))))...))))))))”, 49.7 °C.
Under “CGACGTGCGACATGTGCTG+CAGCACATAGTGCACGTCG ((((((((...((((((((+))))))))...))))))))” stands 48.8 °C; under “CGACGTGCACCATGTGCTG+CAGCACATCTTGCACGTCG (((((((((..((((((((+))))))))..)))))))))”, 45.7 °C.
